In assay [1] the target is HLA-B*15:01. The assay can be described thus: IEDB peptide-MHC binding, purified MHC/direct/fluorescence; filed as Kd, often an IC50 or EC50 that approximates it; ≥ and ≤ were set here for values at or beyond the usual limits of such assays.
For assay [2], the target named is HLA-A*24:02. The assay is described as above.
The target in a further assay is HLA-B*46:01. The assay is described as above.
In the next assay the target is HLA-A*01:01. The assay is described as above.
The target in assay [3] is HLA-B*08:01. The assay is described as above.
The next assay deals with HLA-B*58:01. The assay is described as above.
In assay [4] the target is HLA-A*03:01. The description is as above.
The next assay concerns the target HLA-A*69:01. The assay is described as above.
The target in another assay is HLA-A*26:01. Described as above.
The target of assay [5] is HLA-A*11:01. The description is as above.
The target in the next assay is HLA-A*31:01. The assay is described as above.
Assay [6] addresses HLA-B*07:02. Described as above.
A further assay has as its target HLA-B*40:01. The assay is described as above.
Assay [7] deals with HLA-A*02:01. The assay is described as above.
In another assay the target is HLA-B*27:05. Described as above.
Assay [8] concerns the target HLA-A*03:01. The assay can be described thus: IEDB peptide-MHC binding, purified MHC/competitive/fluorescence; ≥ and ≤ were set here for values at or beyond the usual limits of such assays.
Assay [9] concerns the target HLA-A*02:01. The description is as above. Conditions: source organism: Zaire ebolavirus.
The target of another assay is HLA-B*44:02. The assay can be described thus: IEDB peptide-MHC binding, purified MHC/direct/fluorescence; filed as Kd, often an IC50 or EC50 that approximates it; ≥ and ≤ were set here for values at or beyond the usual limits of such assays.
Another assay addresses HLA-B*48:01. Described as above. Conditions: source organism: Mammarenavirus lassaense.
The target of the next assay is HLA-B*57:01. The assay is described as above. Particulars: source organism: Mammarenavirus lassaense.
For the next assay, the target named is HLA-B*51:01. Description: IEDB peptide-MHC binding, purified MHC/competitive/fluorescence; filed as Kd, often an IC50 or EC50 that approximates it; ≥ and ≤ were set here for values at or beyond the usual limits of such assays.
The target of a further assay is HLA-B*35:01. Described as above.
The target in another assay is HLA-B*53:01. Description: IEDB peptide-MHC binding, purified MHC/competitive/radioactivity; filed as Kd, often an IC50 or EC50 that approximates it; ≥ and ≤ were set here for values at or beyond the usual limits of such assays. Conditions: source organism: Lassa virus GA391.
In assay [10] the target is HLA-B*07:02. The assay is described as above. Conditions: source organism: Lassa virus GA391.
A further assay addresses HLA-B*54:01. The description is as above. Particulars: source organism: Lassa virus GA391.
Assay [11] deals with HLA-A*24:02. The assay can be described thus: IEDB peptide-MHC binding, purified MHC/competitive/fluorescence; ≥ and ≤ were set here for values at or beyond the usual limits of such assays. Conditions: source organism: Zaire ebolavirus.
Assay [12] has as its target HLA-A*11:01. The description is as above.
Assay [13] has as its target HLA-B*15:01. Description: IEDB peptide-MHC binding, purified MHC/competitive/fluorescence; filed as Kd, often an IC50 or EC50 that approximates it; ≥ and ≤ were set here for values at or beyond the usual limits of such assays.
For assay [14], the target named is HLA-B*07:02. Described as above.
Assay [15] deals with HLA-B*15:01. The assay can be described thus: IEDB peptide-MHC binding, purified MHC/competitive/fluorescence; ≥ and ≤ were set here for values at or beyond the usual limits of such assays. Particulars: source organism: Zaire ebolavirus.
In assay [16] the target is HLA-B*08:01. The description is as above. Particulars: source organism: Zaire ebolavirus.
The target of assay [17] is HLA-B*07:02. Described as above. Conditions: source organism: Zaire ebolavirus.
Setting [18] is: source organism: Influenza A virus (A/Puerto Rico/8/34/Mount Sinai(H1N1)).
[19] abbreviates: source organism: Influenza A virus (A/SW/KS/13481-T/00(H1N2)).
Setting [20] is: source organism: Zaire ebolavirus.
Where [21] appears, read: source organism: Mammarenavirus lassaense.
[22] abbreviates: source organism: Encephalitozoon cuniculi GB-M1.
The mark [23] stands for this setting: source organism: Escherichia coli O157:H7 str. Sakai.
The mark [24] stands for this setting: source organism: Bacillus cereus G9241.
Where [25] appears, read: source organism: Sudan ebolavirus.
The mark [26] stands for this setting: source organism: Influenza A virus (A/swine/Bakum/5/95(H1N1)).
Where [27] appears, read: source organism: Influenza A virus (A/Hong Kong/507/97(H5N1)).
Where [28] appears, read: source organism: Shigella flexneri 5 str. 8401.
[29] abbreviates: source organism: Mycobacterium tuberculosis H37Rv.

Kd and IC50 data for 19 sequences are collected here from the Immune Epitope Database (IEDB).

As usually defined, the Kd is the equilibrium constant for the complex coming apart. The term IC50 denotes the point on the concentration scale where inhibition reaches its midpoint.

As to HEKGINPNY, the Kd in the assay with HLA-B*15:01 [1] (setting [18]) is 0.541 µM; with HLA-A*24:02 [2] (setting [19]), no less than 20 µM; in the assay with HLA-B*46:01 (setting [19]), no less than 20 µM; in the assay with HLA-A*01:01 (setting [19]), no less than 20 µM; with HLA-B*08:01 [3] (setting [19]), no less than 20 µM; with HLA-B*58:01 (setting [19]) it was no less than 20 µM. Also, the equilibrium dissociation constant (Kd) with HLA-A*03:01 [4] (setting [19]), with HLA-A*69:01 (setting [19]), in the assay with HLA-A*26:01 (setting [19]), with HLA-A*11:01 [5] (setting [19]), with HLA-A*31:01 (setting [19]) and with HLA-B*07:02 [6] (setting [19]) was no less than 20 µM each time. For the same sequence, the dissociation constant Kd in the assay with HLA-B*40:01 (setting [19]), in the assay with HLA-A*02:01 [7] (setting [19]) and in the assay with HLA-B*27:05 (setting [19]) was no less than 20 µM throughout.
Consider RLLNLSGVN, for which the IC50 worked out at 43.2 µM with HLA-A*03:01 [8] (setting [20]) and 21.9 µM with HLA-A*02:01 [9].
For VPHVIEEVM, the Kd with HLA-B*15:01 [1] (setting [21]) was no less than 20 µM; in the assay with HLA-B*46:01 (setting [21]) it was no less than 20 µM; in the assay with HLA-A*01:01 (setting [21]) it was no less than 20 µM; with HLA-B*08:01 [3] (setting [21]) it was 3.8 µM; in the assay with HLA-B*58:01 (setting [21]), no less than 20 µM; with HLA-A*03:01 [4] (setting [21]), no less than 20 µM. The dissociation constant (Kd) in the assay with HLA-A*69:01 (setting [21]), in the assay with HLA-B*44:02 (setting [21]), with HLA-A*11:01 [5] (setting [21]), with HLA-B*48:01, with HLA-B*57:01 and in the assay with HLA-A*31:01 (setting [21]) was no less than 20 µM in each case. Besides, the equilibrium dissociation constant (Kd) with HLA-B*40:01 (setting [21]) is no less than 20 µM; with HLA-A*02:01 [7] (setting [21]) it was no less than 20 µM; in the assay with HLA-B*27:05 (setting [21]), no less than 20 µM; with HLA-B*51:01 (setting [21]) it was no less than 20 µM; in the assay with HLA-B*35:01 (setting [21]) it was 0.0002 µM; in the assay with HLA-B*53:01 it was 1.09 µM. Besides, the Kd worked out at 0.324 µM in the assay with HLA-B*07:02 [10] and 12.5 µM with HLA-B*54:01.
IMPRDSWLI gave a Kd with HLA-A*24:02 [2] (source organism: Mycobacterium tuberculosis str. Haarlem) of no more than 0.001 µM.
Consider KYLEGHGFR, for which the IC50 in the assay with HLA-A*24:02 [11] was 7.69 µM; with HLA-A*03:01 [8] (setting [20]) it was no less than 195 µM.
For MMVIFRLMR, the IC50 with HLA-A*03:01 [8] (setting [20]) is 0.183 µM; with HLA-A*11:01 [12] (setting [20]) it was 0.0455 µM; with HLA-A*02:01 [9], no less than 5440 µM.
Turning to ILRQNMIAL, the equilibrium dissociation constant (Kd) is 0.188 µM in the assay with HLA-B*15:01 [13] (setting [22]), no less than 20 µM with HLA-B*51:01 (setting [22]), 0.201 µM in the assay with HLA-B*07:02 [14] (setting [22]) and 3.18 µM in the assay with HLA-B*35:01 (setting [22]).
Consider TPTHLSLAI, for which the Kd with HLA-B*15:01 [13] (setting [23]) is no less than 20 µM; in the assay with HLA-B*51:01 (setting [23]), 2.92 µM; with HLA-B*35:01 (setting [23]), 0.0168 µM.
In the case of AITAASLPK, the IC50 was no less than 183 µM in the assay with HLA-B*15:01 [15], 6.97 µM in the assay with HLA-A*03:01 [8] (setting [20]), 0.368 µM in the assay with HLA-A*11:01 [12] (setting [20]) and no less than 281 µM with HLA-A*02:01 [9].
Turning to LFAGSIAAY, the Kd turned out to be 0.19 µM with HLA-B*15:01 [13] (setting [24]) and 0.0522 µM with HLA-B*35:01 (setting [24]).
In the assay with HLA-B*07:02 [14] (source organism: Yersinia pestis CO92), LPFSASIVF had a Kd of 0.0888 µM.
The sequence APGWLIWTY had an equilibrium dissociation constant (Kd) with HLA-B*07:02 [14] (source organism: human gammaherpesvirus 4) of no less than 20 µM.
For the sequence HLASTDQLK, the IC50 with HLA-A*03:01 [8] (setting [25]) was 27.1 µM; with HLA-A*11:01 [12] (setting [25]), 13.8 µM.
As to RGINDRNFW, the Kd in the assay with HLA-B*15:01 [1] (setting [26]) was no less than 20 µM; with HLA-A*24:02 [2] (setting [26]), no less than 20 µM; with HLA-B*46:01 (setting [26]), no less than 20 µM; in the assay with HLA-A*01:01 (setting [26]), no less than 20 µM; with HLA-B*08:01 [3] (setting [26]), no less than 20 µM; in the assay with HLA-B*58:01 (source organism: Influenza A virus (A/swine/Bakum/1832/2000(H1N2))), 0.0415 µM. Also, the Kd with HLA-A*03:01 [4] (setting [26]), in the assay with HLA-A*69:01 (setting [26]), with HLA-A*11:01 [5] (setting [26]), with HLA-A*31:01 (setting [26]), with HLA-B*07:02 [6] (setting [26]) and with HLA-B*40:01 (setting [26]) was no less than 20 µM each time. Besides, the dissociation constant Kd in the assay with HLA-A*02:01 [7] (setting [26]) and with HLA-B*27:05 (setting [26]) was no less than 20 µM in each case.
As for KSCLPACVY, the Kd was 0.482 µM with HLA-B*15:01 [1] (setting [18]); no less than 20 µM in the assay with HLA-A*24:02 [2] (setting [27]); no less than 20 µM with HLA-B*46:01 (setting [27]); no less than 20 µM with HLA-A*01:01 (setting [27]); no less than 20 µM with HLA-B*08:01 [3] (setting [27]); 0.211 µM in the assay with HLA-B*58:01 (setting [27]). Moreover, the dissociation constant Kd in the assay with HLA-A*03:01 [4] (setting [27]), in the assay with HLA-A*69:01 (setting [27]), with HLA-A*26:01 (source organism: Influenza A virus(A/swine/Henan/8/2004(H9N2))), in the assay with HLA-B*44:02 (setting [27]), with HLA-A*31:01 (setting [27]) and in the assay with HLA-B*07:02 [6] (setting [27]) was no less than 20 µM throughout. The Kd in the assay with HLA-B*40:01 (setting [27]), in the assay with HLA-A*02:01 [7] (setting [27]) and with HLA-B*27:05 (setting [27]) was no less than 20 µM each time.
On to TPAQLSMLL, for which the equilibrium dissociation constant (Kd) is no less than 20 µM with HLA-B*51:01 (setting [28]) and 0.215 µM in the assay with HLA-B*07:02 [14] (setting [28]).
On to LPAGSPVAV, for which the Kd was determined as 0.24 µM in the assay with HLA-B*07:02 [6] (source organism: Mycobacterium tuberculosis variant bovis), 0.453 µM in the assay with HLA-B*51:01 (setting [29]) and 0.0027 µM with HLA-B*35:01 (setting [29]).
Turning to YVKQNTLKL, in the assay with HLA-B*07:02 [14] (source organism: Influenza A virus), the dissociation constant Kd came to 0.0718 µM.
As for ILFQRTFSI, the IC50 was no less than 375 µM with HLA-B*15:01 [15]; 1.26 µM in the assay with HLA-B*08:01 [16]; 2.46 µM with HLA-A*03:01 [8] (setting [20]); 42.8 µM in the assay with HLA-A*11:01 [12] (setting [20]); no less than 72.2 µM with HLA-B*07:02 [17]; 0.309 µM with HLA-A*02:01 [9].
